Measurements reported in the supplement of paper PMC9876800.

Test system: peptide library, one residue held at a place counted from the S/T acceptor
Test: relative phosphorylation of the sub-library (ratio to the mean residue at this position); higher = residue favoured
Conditions: human
Outline: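 Human or orthologue kinase constructs, purified and recombinant, were incubated under kinase-specific conditions in 384-well plates with biotinylated degenerate peptide sub-libraries. Each sub-library fixed one residue at one position around a central Ser/Thr. Incubations lasted 90 min with peptides at 50 μM and 50 μM ATP spiked with γ-32P-ATP, after which spots on streptavidin membranes were phosphorimaged and quantified by densitometry. Relative sub-library phosphorylation is a ratio to the mean residue at that position.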

ACVR2A, construct: aa162-end, sequence (P27037 162-513, looked up): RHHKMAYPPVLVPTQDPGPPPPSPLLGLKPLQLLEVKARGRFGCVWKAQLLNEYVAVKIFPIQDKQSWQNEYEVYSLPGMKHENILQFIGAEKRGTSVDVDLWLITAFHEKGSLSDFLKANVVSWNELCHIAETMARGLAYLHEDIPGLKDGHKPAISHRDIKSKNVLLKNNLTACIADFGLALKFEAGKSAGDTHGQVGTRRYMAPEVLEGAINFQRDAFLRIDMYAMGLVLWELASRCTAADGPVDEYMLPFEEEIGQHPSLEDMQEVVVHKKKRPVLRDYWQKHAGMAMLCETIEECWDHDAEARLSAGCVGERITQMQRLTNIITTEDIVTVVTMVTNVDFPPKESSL
STK4, construct: Full length, sequence (Q13043 whole entry, looked up): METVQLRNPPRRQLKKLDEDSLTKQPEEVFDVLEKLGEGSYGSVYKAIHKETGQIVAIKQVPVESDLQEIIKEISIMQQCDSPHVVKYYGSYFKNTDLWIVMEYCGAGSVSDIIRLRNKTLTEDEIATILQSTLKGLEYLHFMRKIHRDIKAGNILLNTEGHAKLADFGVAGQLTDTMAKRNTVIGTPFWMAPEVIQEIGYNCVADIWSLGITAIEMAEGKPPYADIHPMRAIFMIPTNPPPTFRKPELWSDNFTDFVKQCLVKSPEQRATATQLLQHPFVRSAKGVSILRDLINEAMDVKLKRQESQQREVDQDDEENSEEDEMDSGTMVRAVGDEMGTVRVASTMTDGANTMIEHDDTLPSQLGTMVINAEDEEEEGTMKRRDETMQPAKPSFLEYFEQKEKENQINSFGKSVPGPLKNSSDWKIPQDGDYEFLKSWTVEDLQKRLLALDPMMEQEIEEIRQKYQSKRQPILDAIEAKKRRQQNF
BUB1, construct: Full length, sequence (O43683 whole entry, looked up): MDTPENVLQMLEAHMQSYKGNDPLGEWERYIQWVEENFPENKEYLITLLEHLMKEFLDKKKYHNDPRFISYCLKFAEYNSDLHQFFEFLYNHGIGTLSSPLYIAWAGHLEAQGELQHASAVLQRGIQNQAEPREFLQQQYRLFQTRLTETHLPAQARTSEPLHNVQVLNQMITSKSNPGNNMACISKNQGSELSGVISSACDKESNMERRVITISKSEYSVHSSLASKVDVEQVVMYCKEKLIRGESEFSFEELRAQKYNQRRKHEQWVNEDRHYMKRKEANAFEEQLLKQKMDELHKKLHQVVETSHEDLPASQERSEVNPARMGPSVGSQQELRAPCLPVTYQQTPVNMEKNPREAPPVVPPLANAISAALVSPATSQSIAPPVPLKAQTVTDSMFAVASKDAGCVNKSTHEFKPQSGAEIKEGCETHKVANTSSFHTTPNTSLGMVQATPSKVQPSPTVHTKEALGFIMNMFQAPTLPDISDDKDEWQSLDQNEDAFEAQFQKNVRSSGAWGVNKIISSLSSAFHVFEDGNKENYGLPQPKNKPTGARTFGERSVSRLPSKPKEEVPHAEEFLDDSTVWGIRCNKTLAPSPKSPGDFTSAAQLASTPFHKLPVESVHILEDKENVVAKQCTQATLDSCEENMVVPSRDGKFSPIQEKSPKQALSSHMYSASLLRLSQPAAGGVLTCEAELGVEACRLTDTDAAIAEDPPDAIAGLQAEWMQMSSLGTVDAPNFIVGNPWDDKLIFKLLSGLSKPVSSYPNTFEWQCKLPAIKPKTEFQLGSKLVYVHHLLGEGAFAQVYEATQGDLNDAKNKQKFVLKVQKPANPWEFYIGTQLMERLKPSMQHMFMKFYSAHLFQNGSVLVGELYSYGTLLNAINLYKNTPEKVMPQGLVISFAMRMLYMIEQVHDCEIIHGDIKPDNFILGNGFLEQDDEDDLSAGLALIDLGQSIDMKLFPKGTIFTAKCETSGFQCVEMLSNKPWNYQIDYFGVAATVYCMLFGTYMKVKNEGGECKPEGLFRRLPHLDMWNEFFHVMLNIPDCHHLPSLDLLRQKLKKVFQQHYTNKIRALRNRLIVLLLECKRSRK
CDK16, construct: aa107-end, sequence (Q00536 107-496, looked up): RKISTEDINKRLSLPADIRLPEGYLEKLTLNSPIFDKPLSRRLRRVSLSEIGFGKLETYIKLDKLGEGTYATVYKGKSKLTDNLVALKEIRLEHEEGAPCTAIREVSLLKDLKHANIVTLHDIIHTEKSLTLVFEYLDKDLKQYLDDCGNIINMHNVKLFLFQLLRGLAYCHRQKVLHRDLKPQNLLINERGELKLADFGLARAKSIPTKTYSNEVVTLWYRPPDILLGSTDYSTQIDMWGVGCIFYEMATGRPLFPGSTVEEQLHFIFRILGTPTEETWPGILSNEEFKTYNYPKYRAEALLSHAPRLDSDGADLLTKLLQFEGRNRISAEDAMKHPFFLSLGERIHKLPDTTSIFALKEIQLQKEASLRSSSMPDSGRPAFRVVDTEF

ACVR2A, construct: aa162-end (from UniProt P27037)
relative phosphorylation
Conditions	at +1	at +2	at +3	at +4	at -1	at -2	at -3	at -4	at -5
A fixed	0.647	1.12	0.899	0.847	0.822	0.53	0.912	0.943	0.992
D fixed	1.68	1.24	1.06	1.09	1.23	4.3	1.79	1.77	1.51
E fixed	3.21	1.03	1.48	1.09	1.29	5.23	2.05	1.48	1.34
F fixed	0.932	0.983	1.09	0.89	1.17	0.504	0.877	1.05	1.02
G fixed	0.575	1.36	1.01	0.924	0.57	0.5	1.11	0.933	0.818
H fixed	0.7	1.12	1	0.974	1.07	0.487	0.9	0.937	0.969
I fixed	1.18	0.915	0.942	0.957	0.804	0.454	0.855	0.895	1.06
K fixed	0.327	0.805	0.785	0.896	0.532	0.354	0.603	0.69	0.868
L fixed	0.873	0.674	1.04	0.87	1.27	0.431	0.814	0.884	1.01
M fixed	0.996	0.879	1	1.13	1.44	0.399	0.875	0.98	0.886
N fixed	0.638	0.863	0.891	0.946	0.816	0.676	0.854	0.852	0.911
P fixed	0.34	0.989	1.14	1.29	0.676	0.321	0.854	0.791	0.706
Q fixed	1.23	1	0.848	1.05	0.9	0.769	0.863	0.82	0.732
R fixed	0.416	0.935	0.658	0.835	0.577	0.504	0.783	0.777	0.808
V fixed	1.32	0.999	0.963	0.877	1.1	0.502	0.928	0.924	1.02
W fixed	0.961	0.983	1.08	1.36	1.39	0.54	1	1.28	1.37
Y fixed	0.971	1.11	1.11	0.985	1.33	0.498	0.935	0.996	0.982
pThr fixed	4.65	1.1	0.882	1.2	1.37	1.01	2.05	1.37	1.33
pTyr fixed	2.81	0.877	1.39	1	1.81	0.721	1.66	1.16	1.29

CDK16, construct: aa107-end (from UniProt Q00536)
relative phosphorylation
Conditions	at +1	at +2	at +3	at +4	at -1	at -2	at -3	at -4	at -5
A fixed	0.223	0.675	0.758	0.72	1.18	1.28	1.24	0.912	1.03
D fixed	0.152	0.587	0.335	0.457	0.539	0.439	0.692	0.863	0.745
E fixed	0.15	0.385	0.316	0.305	0.491	0.464	0.839	0.817	0.699
F fixed	0.155	0.368	1.03	0.593	0.499	0.512	0.478	0.455	0.542
G fixed	0.947	0.572	0.702	1.38	2.12	0.887	2.02	0.951	0.854
H fixed	0.218	1.25	0.82	1.16	0.92	0.797	1.27	1.08	1.68
I fixed	0.147	0.455	0.842	0.588	0.26	0.834	0.433	0.852	0.625
K fixed	0.253	3.26	0.872	2.54	1.37	0.617	0.915	2.31	2.51
L fixed	0.177	1.05	2.59	0.679	0.582	1.18	0.93	1.15	1.16
M fixed	0.168	0.663	1.97	0.757	0.722	1.12	0.666	0.755	0.722
N fixed	0.225	1.17	0.964	1.09	1.16	1.08	1.19	1.78	1.42
P fixed	13.1	0.696	1.45	0.842	1.77	3.72	1.93	1.11	0.908
Q fixed	0.246	1.26	0.973	1.06	1.28	0.988	1.06	1.01	0.95
R fixed	0.23	2.63	0.996	2.89	1.67	0.715	0.973	1.02	1.08
V fixed	0.177	0.676	0.937	0.66	0.399	0.941	0.643	0.598	0.657
W fixed	0.221	0.702	0.877	0.687	0.991	0.83	0.85	0.675	0.902
Y fixed	0.17	0.608	0.564	0.587	1.04	0.588	0.871	0.653	0.509
pThr fixed	0.435	0.648	0.998	0.332	0.397	0.764	0.87	0.767	0.657
pTyr fixed	0.801	0.513	1.11	0.42	0.49	0.698	0.925	0.584	0.723

STK4, construct: Full length (from UniProt Q13043)
relative phosphorylation
Conditions	at +1	at +2	at +3	at +4	at -1	at -2	at -3	at -4	at -5
A fixed	0.647	0.612	0.745	0.743	0.705	0.763	0.756	0.771	0.964
D fixed	0.276	0.533	0.669	0.779	1.43	1.46	1.24	1.07	1.35
E fixed	0.245	0.413	0.627	0.668	0.881	1.09	0.916	1.12	0.833
F fixed	0.995	0.677	0.965	0.892	0.877	1.66	1.05	1.02	0.98
G fixed	0.641	0.75	0.917	0.987	1.1	0.747	1.07	0.983	0.91
H fixed	0.703	1.33	1.12	1.05	1.26	1.15	1.06	1.27	1.04
I fixed	1.91	0.449	0.682	0.738	0.329	0.507	0.622	0.766	0.581
K fixed	0.639	3.53	1.85	1.5	1.93	0.591	0.963	1.08	1.15
L fixed	2.6	0.759	0.779	1.01	0.822	0.596	0.577	0.749	0.773
M fixed	2.59	0.588	0.673	0.918	0.735	1	0.658	0.742	0.757
N fixed	0.558	1.13	1.21	1.24	1.45	1.28	1.25	1.06	1.02
P fixed	0.196	0.926	1.19	1.13	0.897	0.681	0.992	0.674	1.33
Q fixed	0.685	1.23	1.07	1.3	1.17	1.03	1.35	1.34	1.24
R fixed	0.615	2.29	2.01	1.19	1.33	0.582	0.78	1.01	1.08
V fixed	1.08	0.779	0.702	0.789	0.397	0.561	0.646	0.954	0.861
W fixed	1.79	0.495	0.884	1.27	0.776	1.59	1.63	1.17	1.09
Y fixed	0.816	0.524	0.898	0.793	0.926	1.72	1.45	1.24	1.05
pThr fixed	0.822	1.04	0.958	0.825	0.594	1.02	0.978	0.889	0.769
pTyr fixed	0.627	0.715	0.937	0.899	0.908	2.04	1.39	0.975	1.09

PRKCA, construct: Full length (from UniProt P17252)
relative phosphorylation
Conditions	at +1	at +2	at +3	at +4	at -1	at -2	at -3	at -4	at -5
A fixed	0.485	0.407	0.553	0.819	0.905	0.911	0.726	1.03	1.09
D fixed	0.185	0.216	0.528	0.597	0.541	0.467	0.389	0.578	0.646
E fixed	0.21	0.16	0.526	0.514	0.472	0.407	0.439	0.724	0.643
F fixed	1.74	0.477	1.01	0.553	0.637	0.727	0.963	0.892	1.14
G fixed	0.648	0.42	1.16	1.46	2.07	1.34	1.23	1.47	1.53
H fixed	0.597	1.23	1.12	1.09	0.948	0.985	1.05	1.04	0.997
I fixed	1.64	0.499	0.602	0.58	0.389	0.413	0.501	0.59	0.646
K fixed	1.69	3.79	1.99	2.3	1.88	1.79	1.6	1.39	1.43
L fixed	1.42	0.395	0.843	0.499	0.638	0.469	0.493	0.549	0.688
M fixed	1.33	0.571	0.741	0.564	0.826	0.678	0.796	0.649	0.626
N fixed	0.561	0.86	0.918	1.04	1.39	1.08	1.2	0.915	0.877
P fixed	0.364	0.401	0.697	1.55	1.26	1.13	1.43	1.45	1.22
Q fixed	1.41	0.684	1.03	0.926	1.04	1.15	0.886	1.12	0.716
R fixed	1.87	4.65	2.46	2.26	2.01	3.23	3.44	1.59	1.84
V fixed	1.26	0.464	0.662	0.703	0.661	0.522	0.447	0.92	0.638
W fixed	0.729	0.586	0.972	0.797	0.475	1	0.589	1.28	1.38
Y fixed	0.867	1.19	1.19	0.747	0.862	0.686	0.811	0.805	0.884
pThr fixed	0.729	0.345	0.663	0.482	0.348	0.603	0.636	0.807	0.655
pTyr fixed	0.38	0.31	0.58	0.427	0.983	0.679	0.98	0.802	1.11

BUB1, construct: Full length (from UniProt O43683)
relative phosphorylation
Conditions	at +1	at +2	at +3	at +4	at -1	at -2	at -3	at -4	at -5
A fixed	0.963	0.738	0.95	0.855	0.796	0.718	1.66	1.24	0.423
D fixed	0.375	0.267	0.416	0.455	0.321	0.411	0.232	0.61	0.245
E fixed	0.325	0.331	0.379	0.424	0.289	0.284	0.347	0.865	0.246
F fixed	0.541	1.13	0.784	0.78	0.855	0.411	0.389	0.739	0.486
G fixed	1.34	1.09	1.09	1.31	0.502	0.418	0.918	1.06	0.377
H fixed	0.807	1.22	0.969	1.04	0.902	0.597	0.591	0.882	0.393
I fixed	0.594	0.761	0.565	1	0.551	1.8	0.839	0.556	1.12
K fixed	3.21	2.02	1.22	1.93	2.21	3.31	1.2	1.66	0.472
L fixed	0.552	0.851	0.543	0.849	1.43	1.13	0.526	1.16	4.97
M fixed	0.759	0.986	0.777	0.96	1.32	0.851	0.656	1.13	1.3
N fixed	0.662	0.583	0.711	1.07	0.566	0.584	0.616	0.558	0.388
P fixed	0.367	2.16	4.04	0.962	1.33	0.721	3.77	1.5	1.53
Q fixed	0.972	0.747	0.767	1.01	0.77	0.868	1.24	1.07	0.905
R fixed	3.99	2.14	1.41	1.8	2.76	2.32	2.38	1.64	1.31
V fixed	0.611	0.777	0.631	0.78	0.435	1.65	0.791	0.676	0.543
W fixed	0.497	0.491	0.936	0.949	0.705	0.485	0.442	0.829	0.412
Y fixed	0.442	0.713	0.813	0.824	1.26	0.452	0.405	0.827	1.87
pThr fixed	0.373	0.328	0.586	0.443	0.199	0.249	0.375	0.475	0.408
pTyr fixed	0.252	0.29	0.697	0.463	0.315	0.281	0.256	0.414	0.993
